Measured values published in patent US20240384323A1, “METHOD FOR DETERMINING PROTEASE ACTIVITY IN A BIOLOGICAL SAMPLE” (CytomX Therapeutics, Inc., priority 2021, published 2024).

Target: T1, IQ Probe (internally quenched linear polypeptide containing the S01 substrate)
T1 chain: LSGRSDNH

B1: Recombinant human MT-SP1 (membrane type serine protease 1; R&D Systems 3946-SEB) (protein)
chain: VVGGTDADEGEWPWQVSLHALGQGHICGASLISPNWLVSAAHCYIDDRGFRYSDPTQWTAFLGLHDQSQRSAPGVQERRLKRIISHPFFNDFTFDYDIALLELEKPAEYSSMVRPICLPDASHVFPAGKAIWVTGWGHTQYGGTGALILQKGEIRVINQTTCENLLPQQITPRMMCVGFLSGGVDSCQGDSGGPLSSVEADGRIFQAGVVSWGDGCAQRNKPGVYTRLPLFRDWIKENTGV
- kcat/KM of the S01 substrate, IQ Probe relative to C225-S01: 4.6× and 3.5× times, respectively
